In paper PMC3258144:

B1: 2CG-Cy5 29-mer (dsDNA)
DNA 1: ACTTGCAACGGTCCTAACCGTCACCTCTT
DNA 2: AAGAGGTGACGGTTAGGACCGTTGCAAGT
B2: Non-CG-Cy5 29-mer (dsDNA)
DNA 1: ACTTGCAACAGTCCTAACATTCACCTCTT
DNA 2: AAGAGGTGAATGTTAGGACTGTTGCAAGT

Biological target: Dnmt3a-C WT (mouse, UniProt O88508 608-908)
Assay: fluorescence anisotropy

Sequence of Dnmt3a-C WT (O88508 608-908): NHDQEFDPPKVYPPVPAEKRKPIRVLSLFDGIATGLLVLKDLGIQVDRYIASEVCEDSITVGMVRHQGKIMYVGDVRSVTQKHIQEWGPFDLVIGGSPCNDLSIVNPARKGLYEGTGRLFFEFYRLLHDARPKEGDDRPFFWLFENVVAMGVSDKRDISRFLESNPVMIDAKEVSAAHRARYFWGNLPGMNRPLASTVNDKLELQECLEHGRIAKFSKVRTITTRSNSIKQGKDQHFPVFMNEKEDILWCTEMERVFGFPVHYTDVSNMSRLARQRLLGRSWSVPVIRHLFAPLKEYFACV

Row | Binder | Kd [nM]
1 | B1 | 190 ± 10
2 | B2 | 130 ± 12
